Results as given in patent US20030157533A1, “Nucleic acid labeling by Thermoanaerobacter thermohydrosulfuricus DNA polymerase I variants” (priority 2001, published 2003).

Experiments:
Assay type in all cases: biochemical
[1] = system: human skeletal muscle mRNA; experiment: cDNA labeling using Cy3 and Cy5-dUTP, microarray (FIG. 10); settings: Cy3-dUTP or Cy5-dUTP, 50 degrees C.
Experimental: (§1) A typical 20 μl reaction Cy3 or Cy5 reaction had 1 μg of human skeletal muscle mRNA, oligo dT(25) and random nonamer primers and TtsFYDR polymerase enzyme in 1×reaction buffer (50 mM Tris, pH 8.0, 1 mM DDT, 40 mM KC, 100 uM dA,G and CTP and 50 um each of TTP and Cy3-dUTP or Cy5-dUTP depending on the reaction). Control mRNAs (APBiotech Inc.) of known sequence compositions were included in various concentrations to serve as dynamic range and gene expression ratio controls. Tts reactions were carried out at temperatures from 50 degrees C. Template RNA was hydrolyzed by alkali treatment and neutralized with HEPES.
(§2) Probes were purified using MultiScreen filters (Millipore) and quantified by spectrophotometry. Glass slides containing human cDNA gene targets were hybridized with equal amounts (30 pmol each) of Cy3 and Cy5 labeled cDNA probes. Slides were scanned using a GenePix® (Axon) scanner and quantified using ImageQuant software.

[2] = system: defined DNA template-DNA primer; experiment: Single nucleotide incorporation of dye-dCTP during DNA dependent DNA synthesis (FIG. 13)
Experimental: (§3) Optimized 1×buffer compositions for Reverse Transcriptase (RNA dependent DNA Polymerase) and DNA Polymerase (DNA dependent DNA polymerase) reactions for all variants of Tts Pol I are as follows. Tris, pH 8.0 (50 mM), KCl (40 mM), MgCl2 (3 mM), DTT (1 mM), DNA or RNA template (as needed), primer (5 to 50 femto mols), enzyme 0.5 to 1 units, dNTP or dNTP analog (varying concentrations as needed). In standard synthesis reactions, when full-length synthesis is monitored, 50 uM of all 4 dNTPs are included. Typical reaction volume is 10 ul. Reaction temperature was kept between 37-60 C. depending on the experimental needs. Reaction time was limited to 10 minutes for single nucleotide incorporation studies. Time was varied as needed for the purpose of the experiments, sometimes up to 1 hour if longer extensions are monitored.
Primer extension was monitored using a defined DNA template-DNA primer.
In this experiment the relative efficiencies of incorporation of dye-CTP (Cy3.5-dCTP) was investigated. Three enzyme preparations were tested ΔTts, ΔTtsF412Y, and ΔTtsF412YD426R
Defined DNA shown below served as the template. A P-33 labeled primer (DNA 25 mer) was annealed to the template. Reactions were performed with varying concentrations of either Cy3.5-dCTP or dCTP alone. Inclusion of only one dNTP allowed incorporation of the next correct nucleotide alone. The sequence of the template-primer that allowed for the examination of single nucleotide “C” incorporation is shown below.
Lanes 1, 2, 3, 4 and 5 contain 20, 2, 0.2, 0.02 and 0 uM dye-dCTP. Lane 5 has no enzyme, to show the integrity of the starting p-33 labeled primer. Quantification of the single nucleotide extension product is one way to tell if DR change in the enzyme led to any consequence. “P” indicates a radio labeled primer. “P+1” represents the elongated product by a single nucleotide or nucleotide analog. P+1 migrates slowly with the dye-dNTP conjugate. Note that the migration of Cy3.5-dCTP containing band travel slowly on the gel compared to dCMP extended products. […] P+1 product is achieved between 10-100 fold less concentration of dye-dCTP with the enzyme having the DR change. Essentially, incorporation is achieved at a much lower concentration of dye-dNMP compared to the wild type enzyme. It is evident that the DR enzyme was able to incorporate Cy3.5-dCTP at concentrations as low as 0.2 uM or even lower.

[3] = system: human skeletal muscle mRNA; experiment: cDNA labeling using Cy3/Cy5-dCTP over a wide reaction temperature range, microarray (FIGS. 14a and b); settings: reaction temperatures 37, 42, 45, 50, 55, 60 and 65 degrees; normalization factor of 2
Experimental: A 20 μl reaction Cy3 or Cy5 reaction had 1 μg of human skeletal muscle mRNA, oligo dT(25) and random nonamer primers and TtsFYDR polymerase enzyme in 1×reaction buffer (50 mM Tris, pH 8.0, 1 mM DDT, 40 mM KC, 100 uM dA,G and TTP and 50 um each of CTP and Cy3-dCTP or Cy5-dCTP depending on the reaction). Control mRNAs (APBiotech Inc.) of known sequence compositions were included in various concentrations to serve as dynamic range and gene expression ratio controls. Tts reactions were carried out at temperatures from 37, 42, 45, 50, 55, 60 and 65 degrees. For Superscript II, cDNA synthesis reactions were carried out at 42 C. (Life Technologies). Template RNA was hydrolyzed by alkali treatment and neutralized with HEPES.
Probes were purified using MultiScreen filters (Millipore) and quantified by spectrophotometry. Glass slides containing human cDNA gene targets were hybridized with equal amounts (30 pmol each) of Cy3 and Cy5 labeled cDNA probes. Slides were scanned using a GenePix® (Axon) scanner and quantified using ImageQuant software. A normalization factor of 2 (due to differences in the excitation efficiencies of Cy3 and Cy5) was applied to the observed ratio of raw flourescence signal. The figure illustrates precise determination of gene expression differences in Cy3 and Cy5 reactions.

[4] = system: Globin mRNA template annealed to P-33 labeled primer; experiment: Single nucleotide incorporation of Cy3.5-dCTP or dCTP on RNA template (reverse transcriptase reaction, FIG. 7)
Experimental: The experiment shown in FIG. 7 investigates the relative efficiencies of incorporation of dye-CTP (Cy3.5-dCTP) and dCTP. Three enzyme preparations ΔTts, ΔTts F412Y, ΔTtsF412YD426R were analyzed in this experiment.
as §3
The experiment shown in FIG. 7 investigates the relative efficiencies of incorporation of dye-CTP (Cy3.5-dCTP) and dCTP. Three enzyme preparations ΔTts, ΔTtsFY, ΔTtsF412YD426R were analyzed in this experiment.
In FIG. 7, Globin mRNA served as the template. A 5′ P-33 labeled primer (DNA 25-mer) was annealed to the template. Reactions were performed with varying concentrations of either Cy3.5-dCTP or dCTP alone. Inclusion of only one dNTP allowed incorporation of the next correct nucleotide alone. The sequence of the template-primer that allowed for the examination of single nucleotide “C” incorporation is shown below.
Lanes 1,2,3 and 4 contain 20, 2, 0.2, and 0.02 uM of dNTP or dye-dNTP. Lane with no label has no enzyme, to show the integrity of the starting P-33 labeled primer. Quantification of the single nucleotide extension product is one way to tell if DR change to in the enzyme led to any consequence. “P” indicates a radio labeled primer. “P+1” represents the elongated product by a single nucleotide or nucleotide analog. P+1 migrates slowly with the dye-dNTP conjugate. Note that the migration of Cy3.5 dCMP containing bands travel slowly on the gel compared to dCTP extended products. […] Essentially, incorporation is achieved at lower concentrations (less than 10 times) of dye-dNTP compared to that of the wild type polymerase. It is evident that the DR enzyme was able to incorporate Cy3.5 dCTP at concentrations as low as 0.2 uM (Cy3.5 dCTP) or even lower. […] In this experiment the template-primer is a mRNA annealed to radio labeled primer. Extension is monitored qualitatively as P+1 for the natural nucleotides and P+1* for dye labeled nucleotide. This is a promising first observation for potential use in microarray applications for cDNA probe labeling.

[5] = system: human skeletal muscle mRNA; experiment: cDNA labeling using Cy3 and Cy5-dCTP, microarray (FIG. 9); settings: Cy3-dCTP or Cy5-dCTP, 50 degrees C.
Experimental: as §1, with “TTP” for “CTP”, “CTP” for “TTP”, “Cy3-dCTP” for “Cy3-dUTP”, “Cy5-dCTP” for “Cy5-dUTP”
as §2

concentration of Cy3.5-dCTP at which the enzyme was able to incorporate [2]: ≤ 0.2 µM
concentration of Cy3.5 dCTP at which the enzyme was able to incorporate ([4]; 10 min single nucleotide incorporation): ≤ 0.2 µM
fold less concentration of dCTP at which P+1 product is achieved ([4]; dCTP, compared with enzymes without the DR change): 10-100 fold
lower concentration of dye-dNTP at which incorporation is achieved compared to wild type polymerase ([4]; dye-CTP (Cy3.5-dCTP)): less than 10 times
B1: ΔTtsF412YD426R: exonuclease deficient truncated Tts DNA polymerase I with F412Y and D426R changes (SEQ ID No. 7) (protein, listed as Thermoanaerobacter thermohydrosulfuricus)
chain: MYKFLIIDGSSLMYRAYYALPMLTTSEGLPTNALYGFTMMLIKLIEEEKPDYIAIAFDKKAPTFRHKEYQDYKATRQAMPEELAEQVDYLKEIIDGFNIKTLELEGYEADDIIGTISKLAEEKGMEVLVVTGDRDALQLVSDKVKIKISKKGITQMEEFDEKAILERYGITPQQFIDLKGLMGDKSDNIPGVPNIGEKTAIKLLKDFGTIENLIQNLSQLKGKIKENIENNKELAIMSKRLATIKRDIPIEIDFEEYKVKKFNEEKLLELFNKLEFFSLIDNIKKESSIEIVDNHKVEKWSKVDIKELVTLLQDNRNIAFYPLIYEGEIKKIAFSFGKDTVYIDVFQTEDLKEIFEKEDFEFTTHEIKDFLVRLSYKGIECKSKYIDTAVMAYLLNPSESNYDLDRVLKKYLKVDVPSYEGIFGKGRDKKKIEEIDENILADYICSRCVYLFDLKEKLMNFIEEMDMKKLLLEIEMPLVEVLKSMEVSGFTLDKEVLKELSQKIDDRIGEILDKIYKEAGYQFNVNSPKQLSEFLFEKLNLPVIKKTKTGYSTDSEVLEQLVPYNDIVSDIIEYRQLTKLKSTYIDGFLPLMDENNRVHSNFKQMVTATGRISSTEPNLQNIPIREEFGRQIRRAFIPRSRDGYIVSADYSQIELRVLAHVSGDEKLIESFMNNEDIHLRTASEVFKVPMEKVTPEMRRAAKAVNYGIIYGISDYGLSRRLKISRKEAKEYINNYFERYKGVKDYIEKIVRFAKENGYVTTIMNRRRYIPEINSRNFTQRSQAERLAMNAPIQGSAADIIKMAMVKVYNDLKKLKLKSKLILQVHDELVVDTYKDEVDIIKKILKENMENVVQLKVPLVVEIGVGPNWFLAK
incorporation of Cy3 versus Cy5 in cDNA probes [1]: near even incorporation of Cy3 and Cy5
fold less concentration of dye-dCTP at which P+1 product is achieved ([2]; dye-dCTP, compared with enzymes without the DR change): 10-100 fold
normalized observed ratios of Cy3/Cy5 signal versus target ratios [3]: very close to the target ratios
incorporation of Cy3 versus Cy5 in cDNA probes [5]: near even incorporation of Cy3 and Cy5
